This passage reports Kd, koff and kon results from patent US20260184782A1 (TWIST BIOSCIENCE, published 2026).

This assay addresses T1, recombinant human TIGIT (human, UniProt Q495A1 22-141, limits assumed).
T1 construct: recombinant human TIGIT used in Carterra SPR; also called hTIGIT
T1 sequence (looked up): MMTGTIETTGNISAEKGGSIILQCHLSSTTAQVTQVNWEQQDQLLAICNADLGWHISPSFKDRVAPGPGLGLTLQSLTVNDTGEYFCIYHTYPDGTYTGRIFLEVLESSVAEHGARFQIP
In words: SPR Carterra, average. How it is done:
Binding affinities of VHH-Fc proteins to recombinant human TIGIT were measured by SPR using a Carterra instrument (Table 10A). […] Average values reported from measurements from 1-2 samples.

B1: TIGIT-SC48 (Fc fusion)
VHH: EVQLVESGGGLVQPGGSLRLSCAASGRTSDIYGMGWFRQAPGKEREAVASIWRSGGNTYYADSVKGRFTISADNSKNTAYLQMNSLKPEDTAVYYCASSTLDVWGQGTLVTVSS
notes: VHH-Fc fusion in assay
As usually defined, the Kd is the concentration at which binding is half-saturated. A word on the koff: it is a measure of how fast the partners let go of each other. A word on the kon: it is the rate constant with which the complex forms. In the case of B1, the Kd was determined as 0.713 nM, the koff was 0.00551 s⁻¹ and the kon was 7.72e+06 M⁻¹ s⁻¹.

B2: TIGIT-SC19 (Fc fusion)
VHH: EVQLVESGGGLVQPGGSLRLSCAASGRTYDAMGWFRQAPGKEREWVASVLRGGYTWYADSVKGRFTISADNSKNTAYLQMNSLKPEDTAVYYCARDVDYRFDSWGQGTLVTVSS
notes: VHH-Fc fusion in assay
Turning to B2, the Kd stood at 1.07 nM, the koff was 0.0012 s⁻¹ and the kon was 1.12e+06 M⁻¹ s⁻¹.

B3: TIGIT-SC34 (Fc fusion)
VHH: EVQLVESGGGLVQPGGSLRLSCAASGTTFSPYTMGWFRQAPGKEREFVASINSGSRTNYADSVKGRFTISADNSKNTAYLQMNSLKPEDTAVYYCVRSEIGWGQGTLVTVSS
notes: VHH-Fc fusion in assay
For B3, the Kd was ≤ 0.0105 nM, the koff is ≤ 1e-05 s⁻¹ and the kon came out at 1.31e+06 M⁻¹ s⁻¹.

B4: TIGIT-SC38 (Fc fusion)
VHH: EVQLVESGGGLVQPGGSLRLSCAASGFTFSEYPMGWFRQAPGKEREFVAVVNWNGDSTYYADSVKGRFTISADNSKNTAYLQMNSLKPEDTAVYYCARGSDWYRYWGQGTLVTVSS
notes: VHH-Fc fusion in assay
In the case of B4, the Kd was determined as 0.505 nM, the koff came out at 0.000237 s⁻¹ and the kon was 469000 M⁻¹ s⁻¹.

B5: TIGIT-SC58 (Fc fusion)
VHH: EVQLVESGGGLVQPGGSLRLSCAASGFTLGYYVMGWFRQAPGKEREFVATINWSGTLTSYADSVKGRFTISADNSKNTAYLQMNSLKPEDTAVYYCARWVGPKYYFDYWGQGTLVTVSS
notes: VHH-Fc fusion in assay
Take B5: the Kd is ≤ 0.0118 nM, the koff was ≤ 1e-05 s⁻¹ and the kon is 860000 M⁻¹ s⁻¹.

B6: TIGIT-SC47 (Fc fusion)
VHH: EVQLVESGGGLVQPGGSLRLSCAASGRALNMYVMGWFRQAPGKERELVAAIDWSGGSALYADSVKGRFTISADNSKNTAYLQMNSLKPEDTAVYYCASGDGYSMDYFDPWGQGTLVTVSS
notes: VHH-Fc fusion in assay
Take B6: the Kd was ≤ 0.204 nM, the koff was ≤ 1e-05 s⁻¹ and the kon is 48900 M⁻¹ s⁻¹.

B7: TIGIT-SC107 (Fc fusion)
VHH: EVQLVESGGGLVQPGGSLRLSCAASGFAFSSDWMGWFRQAPGKEREGVAWIARYDGSTLYADSVKGRFTISADNSKNTAYLQMNSLKPEDTAVYYCAKDLDSSGRFFQHWGQGTLVTVSS
notes: VHH-Fc fusion in assay
With B7, the Kd was 0.693 nM, the koff stood at 0.000148 s⁻¹ and the kon is 213000 M⁻¹ s⁻¹.

B8: TIGIT-SC108 (Fc fusion)
VHH: EVQLVESGGGLVQPGGSLRLSCAASGNTFSGGFMGWFRQAPGKEREWVASVLRGGYTWYADSVKGRFTISADNSKNTAYLQMNSLKPEDTAVYYCANGGRVWWAFDYWGQGTLVTVSS
notes: VHH-Fc fusion in assay
For the molecule B8, the Kd was determined as 8.9 nM, the koff turned out to be 0.00181 s⁻¹ and the kon stood at 203000 M⁻¹ s⁻¹.

B9: TIGIT-SC197 (Fc fusion)
VHH: EVQLVESGGGLVQPGGSLRLSCAASGFTFDRSWMGWFRQAPGKEREWVASVLRGGYTWYADSVKGRFTISADNSKNTAYLQMNSLKPEDTAVYYCAREGRTAGWFDPWGQGTLVTVSS
notes: VHH-Fc fusion in assay
For the molecule B9, the Kd came to 9.35 nM, the koff was 0.00156 s⁻¹ and the kon stood at 168000 M⁻¹ s⁻¹.

B10: TIGIT-SC61 (Fc fusion)
VHH: EVQLVESGGGLVQPGGSLRLSCAASGNTFSGGFMGWFRQAPGKEREWVASVLRGGYTWYADSVKGRFTISADNSKNTAYLQMNSLKPEDTAVYYCTRGDTAMATFDYWGQGTLVTVSS
notes: VHH-Fc fusion in assay
On to B10, for which the Kd amounted to 59.2 nM, the koff is 0.0037 s⁻¹ and the kon was 63000 M⁻¹ s⁻¹.

B11: TIGIT-SC175 (Fc fusion)
VHH: EVQLVESGGGLVQPGGSLRLSCAASGNTFSGGFMGWFRQAPGKEREWVASVLRGGYTWYADSVKGRFTISADNSKNTAYLQMNSLKPEDTAVYYCTTDALRFLEWPWWGQGTLVTVSS
notes: VHH-Fc fusion in assay
Regarding B11, the Kd came out at 14.4 nM, the koff was 0.00124 s⁻¹ and the kon came to 101000 M⁻¹ s⁻¹.

B12: TIGIT-SC10 (Fc fusion)
VHH: EVQLVESGGGLVQPGGSLRLSCAASGNTFSGGFMGWFRQAPGKEREWVASVLRGGYTWYADSVKGRFTISADNSKNTAYLQMNSLKPEDTAVYYCASDPWGTRYFDHWGQGTLVTVSS
notes: VHH-Fc fusion in assay
For B12, the Kd is 0.328 nM, the koff was 0.0002 s⁻¹ and the kon was found to be 566000 M⁻¹ s⁻¹.

B13: TIGIT-SC21 (Fc fusion)
VHH: EVQLVESGGGLVQPGGSLRLSCAASGNTFSGGFMGWFRQAPGKEREWVASVLRGGYTWYADSVKGRFTISADNSKNTAYLQMNSLKPEDTAVYYCARGGAGSDWFGPWGQGTLVTVSS
notes: VHH-Fc fusion in assay
On to B13, for which the Kd stood at 7.57 nM, the koff stood at 0.000578 s⁻¹ and the kon was found to be 86600 M⁻¹ s⁻¹.

B14: TIGIT-SC63 (Fc fusion)
VHH: EVQLVESGGGLVQPGGSLRLSCAASGRAIGSYGMGWFRQAPGKEREFVATISVSGVYTYYADSVKGRFTISADNSKNTAYLQMNSLKPEDTAVYYCARATPGGVVPWGQGTLVTVSS
notes: VHH-Fc fusion in assay
In the case of B14, the Kd was ≤ 0.156 nM, the koff was ≤ 1e-05 s⁻¹ and the kon came out at 64300 M⁻¹ s⁻¹.

B15: TIGIT-SC1 (Fc fusion)
VHH: EVQLVESGGGLVQPGGSLRLSCAASGFTLNDYAMGWFRQAPGKERELVAWIARYDGSTLYADSVKGRFTISADNSKNTAYLQMNSLKPEDTAVYYCARVDWALNAAPFDYWGQGTLVTVSS
notes: VHH-Fc fusion in assay
In the case of B15, the Kd was 0.467 nM, the koff worked out at 0.000165 s⁻¹ and the kon was 246000 M⁻¹ s⁻¹.

B16: TIGIT-SC78 (Fc fusion)
VHH: EVQLVESGGGLVQPGGSLRLSCAASGLTLNDYAMGWFRQAPGKERELVAWIARYDGSTLYADSVKGRFTISADNSKNTAYLQMNSLKPEDTAVYYCARVDWALNAAPFDYWGQGTLVTVSS
notes: VHH-Fc fusion in assay
Turning to B16, the Kd came to 2.02 nM, the koff was 0.000493 s⁻¹ and the kon amounted to 244000 M⁻¹ s⁻¹.

B17: TIGIT-SC160 (Fc fusion)
VHH: EVQLVESGGGLVQPGGSLRLSCAASGNTFSGGFMGWFRQAPGKEREWVASVLRGGYTWYADSVKGRFTISADNSKNTAYLQMNSLKPEDTAVYYCAREGRSSSPWFDPWGQGTLVTVSS
notes: VHH-Fc fusion in assay
For B17, the Kd came to 31.6 nM, the koff was determined as 0.00265 s⁻¹ and the kon came to 105000 M⁻¹ s⁻¹.

B18: TIGIT-SC6 (Fc fusion)
VHH: EVQLVESGGGLVQPGGSLRLSCAASGNTFSGGFMGWFRQAPGKEREWVASVLRGGYTWYADSVKGRFTISADNSKNTAYLQMNSLKPEDTAVYYCAISPVAWHAKFDSWGQGTLVTVSS
notes: VHH-Fc fusion in assay
Turning to B18, the Kd came out at 19.4 nM, the koff is 0.00129 s⁻¹ and the kon worked out at 66700 M⁻¹ s⁻¹.

B19: TIGIT-SC110 (Fc fusion)
VHH: EVQLVESGGGLVQPGGSLRLSCAASGNTFSGGFMGWFRQAPGKEREWVASVLRGGYTWYADSVKGRFTISADNSKNTAYLQMNSLKPEDTAVYYCARDHTAMVAPFDYWGQGTLVTVSS
notes: VHH-Fc fusion in assay
Regarding B19, the Kd was 1.44 nM, the off-rate constant (koff) amounted to 0.000765 s⁻¹ and the kon came out at 531000 M⁻¹ s⁻¹.

B20: TIGIT-SC97 (Fc fusion)
VHH: EVQLVESGGGLVQPGGSLRLSCAASGTAASFNPMGWFRQAPGKEREFVAAISWSGGSTNYADSVKGRFTISADNSKNTAYLQMNSLKPEDTAVYYCVTYSAYDFRNAWGQGTLVTVSS
notes: VHH-Fc fusion in assay
On to B20, for which the Kd came to 0.447 nM, the koff came out at 0.000231 s⁻¹ and the kon was found to be 942000 M⁻¹ s⁻¹.

B21: TIGIT-SC95 (Fc fusion)
VHH: EVQLVESGGGLVQPGGSLRLSCAASGPTFSTNVMGWFRQAPGKEREFVSSIHWGGSSTVYADSVKGRFTISADNSKNTAYLQMNSLKPEDTAVYYCVTYSAYDFRNAWGQGTLVTVSS
notes: VHH-Fc fusion in assay
With B21, the dissociation constant Kd turned out to be 2.55 nM, the koff was 0.00352 s⁻¹ and the kon was found to be 1.38e+06 M⁻¹ s⁻¹.

B22: TIGIT-SC39 (Fc fusion)
VHH: EVQLVESGGGLVQPGGSLRLSCAASGRTVSSHAMGWFRQAPGKEREFVAAITSSGSTYYADSVKGRFTISADNSKNTAYLQMNSLKPEDTAVYYCASSYSSSSGLGDIWGQGTLVTVSS
notes: VHH-Fc fusion in assay
In the case of B22, the dissociation constant (Kd) was ≤ 0.0423 nM, the koff is ≤ 1e-05 s⁻¹ and the kon was 342000 M⁻¹ s⁻¹.

B23: TIGIT-SC170 (Fc fusion)
VHH: EVQLVESGGGLVQPGGSLRLSCAASGHTFSPSWMGWFRQAPGKEREWVASVLRGGYTWYADSVKGRFTISADNSKNTAYLQMNSLKPEDTAVYYCTTELRWELQQPDYWGQGTLVTVSS
notes: VHH-Fc fusion in assay
B23: the Kd is ≤ 0.222 nM, the koff was ≤ 1e-05 s⁻¹ and the kon was 45000 M⁻¹ s⁻¹.

B24: TIGIT-SC14 (Fc fusion)
VHH: EVQLVESGGGLVQPGGSLRLSCAASGSISSIHAMGWFRQAPGKEREFVATISRSGVGTFYADSVKGRFTISADNSKNTAYLQMNSLKPEDTAVYYCASSYSSSSGLGDIWGQGTLVTVSS
notes: VHH-Fc fusion in assay
With B24, the Kd is ≤ 0.00513 nM, the koff is ≤ 1e-05 s⁻¹ and the kon is 1.95e+06 M⁻¹ s⁻¹.

B25: TIGIT-SC3 (Fc fusion)
VHH: EVQLVESGGGLVQPGGSLRLSCAASGTFQRINAMGWFRQAPGKEREFVSTINWSGSNTYYADSVKGRFTISADNSKNTAYLQMNSLKPEDTAVYYCASSYSSSSGLGDIWGQGTLVTVSS
notes: VHH-Fc fusion in assay
With B25, the Kd is ≤ 0.00502 nM, the dissociation rate constant (koff) is ≤ 1e-05 s⁻¹ and the kon was determined as 4.71e+06 M⁻¹ s⁻¹.

B26: TIGIT-SC77 (Fc fusion)
VHH: EVQLVESGGGLVQPGGSLRLSCAASGGAFSTVAMGWFRQAPGKEREAVASIWRSGDSTYYADSVKGRFTISADNSKNTAYLQMNSLKPEDTAVYYCASSYSSSSGLGDIWGQGTLVTVSS
notes: VHH-Fc fusion in assay
For the molecule B26, the Kd is 2.07 nM, the koff was 0.000837 s⁻¹ and the kon stood at 1.17e+06 M⁻¹ s⁻¹.
